Results published in US20200199241A1 (Chugai, published 2020).

target: T1, human FcRn (soluble human FcRn complexed with β2-microglobulin) (human, UniProt P61769 21-119, limits assumed); assay: SPR, pH 7.0;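 further: antibodies captured on a Protein L sensor chip with human FcRn injected as analyte, KD calculated from fitted association and dissociation rate constants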
T1 construct: also called hFcRn
T1 sequence (chain, as listed by the source limits assumed, chain 1 of 2): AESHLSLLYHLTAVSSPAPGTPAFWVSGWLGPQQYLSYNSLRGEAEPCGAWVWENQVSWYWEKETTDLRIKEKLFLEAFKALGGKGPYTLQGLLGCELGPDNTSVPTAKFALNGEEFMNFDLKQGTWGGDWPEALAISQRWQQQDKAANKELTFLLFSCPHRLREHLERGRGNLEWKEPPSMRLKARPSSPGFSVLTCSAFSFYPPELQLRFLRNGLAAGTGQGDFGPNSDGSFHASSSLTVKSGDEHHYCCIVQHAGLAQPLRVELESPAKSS
T1 sequence (P61769 21-119 limits assumed, chain 2 of 2): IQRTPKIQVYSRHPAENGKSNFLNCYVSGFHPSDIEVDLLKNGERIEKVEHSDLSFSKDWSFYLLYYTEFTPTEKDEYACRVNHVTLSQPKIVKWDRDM

Row | Binder | Kd
1 | IgG1-F534 (antibody, EU numbering; copies: 2 + 2) heavy: QVQLQESGPGLVKPSETLSLTCAVSGHSISHDHAWSWVRQPPGEGLEWIGFISYSGITNYNPSLQGRVTISRDNSKNTLYLQMNSLRAEDTAVYYCARSLARTTAMDYWGEGTLVTVSSASTKGPSVFPLAPSSKSTSGGTAALGCLVKDYFPEPVTVSWNSGALTSGVHTFPAVLQSSGLYSLSSVVTVPSSSLGTQTYICNVNHKPSNTKVDKKVEPKSCDKTHTCPPCPAPELLGGPSVFLFPPKPKDTLMISRTAEVTCVVVDVSHEDPEVKFNWYVDGVEVHEAKTKPREEQYNSTYRVVSVLQVLHQDWLNGKEYKCKVSNKALPAPIEKTISKAKGQPREPQVYTLPPSRDELTKNQVSLTCLVKGFYPSDIAVEWESNGQPENNYKTTPPVLDSDGSFFLYSKLTVDKSRWQQGNVFSCSVYHEALHYHYTQKSLSLSP light: not shown | 12 nM
2 | IgG1-F535 (antibody, EU numbering; copies: 2 + 2) heavy: QVQLQESGPGLVKPSETLSLTCAVSGHSISHDHAWSWVRQPPGEGLEWIGFISYSGITNYNPSLQGRVTISRDNSKNTLYLQMNSLRAEDTAVYYCARSLARTTAMDYWGEGTLVTVSSASTKGPSVFPLAPSSKSTSGGTAALGCLVKDYFPEPVTVSWNSGALTSGVHTFPAVLQSSGLYSLSSVVTVPSSSLGTQTYICNVNHKPSNTKVDKKVEPKSCDKTHTCPPCPAPELLGGPSVFLFPPKPKDALMISRTVEVTCVVVDVSHEDPEVKFNWYVDGVEVHNAKTKPREEQYNSTYRVVSVLQVLHQDWLNGKEYKCKVSNKALPAPIEKTISKAKGQPREPQVYTLPPSRDELTKNQVSLTCLVKGFYPSDIAVEWESNGQPENNYKTTPPVLDSDGSFFLYSKLTVDKSRWQQGNVFSCSVLHEALHYHYTQKSLSLSP light: not shown | 39 nM
3 | IgG1-F538 (antibody, EU numbering; copies: 2 + 2) heavy: QVQLQESGPGLVKPSETLSLTCAVSGHSISHDHAWSWVRQPPGEGLEWIGFISYSGITNYNPSLQGRVTISRDNSKNTLYLQMNSLRAEDTAVYYCARSLARTTAMDYWGEGTLVTVSSASTKGPSVFPLAPSSKSTSGGTAALGCLVKDYFPEPVTVSWNSGALTSGVHTFPAVLQSSGLYSLSSVVTVPSSSLGTQTYICNVNHKPSNTKVDKKVEPKSCDKTHTCPPCPAPELLGGPSVFLFPPKPKDFLMISRTVEVTCVVVDVSHEDPEVKFNWYVDGVEVHNAKTKPREEQYNSTYRVVSVLQVLHQDWLNGKEYKCKVSNKALPAPIEKTISKAKGQPREPQVYTLPPSRDELTKNQVSLTCLVKGFYPSDIAVEWESNGQPENNYKTTPPVLDSDGSFFLYSKLTVDKSRWQQGNVFSCSVLHEALHYHYTQKSLSLSP light: not shown | 99 nM
4 | IgG1-F541 (antibody, EU numbering; copies: 2 + 2) heavy: QVQLQESGPGLVKPSETLSLTCAVSGHSISHDHAWSWVRQPPGEGLEWIGFISYSGITNYNPSLQGRVTISRDNSKNTLYLQMNSLRAEDTAVYYCARSLARTTAMDYWGEGTLVTVSSASTKGPSVFPLAPSSKSTSGGTAALGCLVKDYFPEPVTVSWNSGALTSGVHTFPAVLQSSGLYSLSSVVTVPSSSLGTQTYICNVNHKPSNTKVDKKVEPKSCDKTHTCPPCPAPELLGGPSVFLFPPKPKDILMISRTVEVTCVVVDVSHEDPEVKFNWYVDGVEVHNAKTKPREEQYNSTYRVVSVLQVLHQDWLNGKEYKCKVSNKALPAPIEKTISKAKGQPREPQVYTLPPSRDELTKNQVSLTCLVKGFYPSDIAVEWESNGQPENNYKTTPPVLDSDGSFFLYSKLTVDKSRWQQGNVFSCSVLHEALHYHYTQKSLSLSP light: not shown | 60 nM
5 | IgG1-F544 (antibody, EU numbering; copies: 2 + 2) heavy: QVQLQESGPGLVKPSETLSLTCAVSGHSISHDHAWSWVRQPPGEGLEWIGFISYSGITNYNPSLQGRVTISRDNSKNTLYLQMNSLRAEDTAVYYCARSLARTTAMDYWGEGTLVTVSSASTKGPSVFPLAPSSKSTSGGTAALGCLVKDYFPEPVTVSWNSGALTSGVHTFPAVLQSSGLYSLSSVVTVPSSSLGTQTYICNVNHKPSNTKVDKKVEPKSCDKTHTCPPCPAPELLGGPSVFLFPPKPKDMLMISRTVEVTCVVVDVSHEDPEVKFNWYVDGVEVHNAKTKPREEQYNSTYRVVSVLQVLHQDWLNGKEYKCKVSNKALPAPIEKTISKAKGQPREPQVYTLPPSRDELTKNQVSLTCLVKGFYPSDIAVEWESNGQPENNYKTTPPVLDSDGSFFLYSKLTVDKSRWQQGNVFSCSVLHEALHYHYTQKSLSLSP light: not shown | 31 nM
6 | IgG1-F549 (antibody, EU numbering; copies: 2 + 2) heavy: QVQLQESGPGLVKPSETLSLTCAVSGHSISHDHAWSWVRQPPGEGLEWIGFISYSGITNYNPSLQGRVTISRDNSKNTLYLQMNSLRAEDTAVYYCARSLARTTAMDYWGEGTLVTVSSASTKGPSVFPLAPSSKSTSGGTAALGCLVKDYFPEPVTVSWNSGALTSGVHTFPAVLQSSGLYSLSSVVTVPSSSLGTQTYICNVNHKPSNTKVDKKVEPKSCDKTHTCPPCPAPELLGGPSVFLFPPKPKDSLMISRTVEVTCVVVDVSHEDPEVKFNWYVDGVEVHNAKTKPREEQYNSTYRVVSVLQVLHQDWLNGKEYKCKVSNKALPAPIEKTISKAKGQPREPQVYTLPPSRDELTKNQVSLTCLVKGFYPSDIAVEWESNGQPENNYKTTPPVLDSDGSFFLYSKLTVDKSRWQQGNVFSCSVLHEALHYHYTQKSLSLSP light: not shown | 54 nM
7 | IgG1-F550 (antibody, EU numbering; copies: 2 + 2) heavy: QVQLQESGPGLVKPSETLSLTCAVSGHSISHDHAWSWVRQPPGEGLEWIGFISYSGITNYNPSLQGRVTISRDNSKNTLYLQMNSLRAEDTAVYYCARSLARTTAMDYWGEGTLVTVSSASTKGPSVFPLAPSSKSTSGGTAALGCLVKDYFPEPVTVSWNSGALTSGVHTFPAVLQSSGLYSLSSVVTVPSSSLGTQTYICNVNHKPSNTKVDKKVEPKSCDKTHTCPPCPAPELLGGPSVFLFPPKPKDVLMISRTVEVTCVVVDVSHEDPEVKFNWYVDGVEVHNAKTKPREEQYNSTYRVVSVLQVLHQDWLNGKEYKCKVSNKALPAPIEKTISKAKGQPREPQVYTLPPSRDELTKNQVSLTCLVKGFYPSDIAVEWESNGQPENNYKTTPPVLDSDGSFFLYSKLTVDKSRWQQGNVFSCSVLHEALHYHYTQKSLSLSP light: not shown | 59 nM
8 | IgG1-F551 (antibody, EU numbering; copies: 2 + 2) heavy: QVQLQESGPGLVKPSETLSLTCAVSGHSISHDHAWSWVRQPPGEGLEWIGFISYSGITNYNPSLQGRVTISRDNSKNTLYLQMNSLRAEDTAVYYCARSLARTTAMDYWGEGTLVTVSSASTKGPSVFPLAPSSKSTSGGTAALGCLVKDYFPEPVTVSWNSGALTSGVHTFPAVLQSSGLYSLSSVVTVPSSSLGTQTYICNVNHKPSNTKVDKKVEPKSCDKTHTCPPCPAPELLGGPSVFLFPPKPKDWLMISRTVEVTCVVVDVSHEDPEVKFNWYVDGVEVHNAKTKPREEQYNSTYRVVSVLQVLHQDWLNGKEYKCKVSNKALPAPIEKTISKAKGQPREPQVYTLPPSRDELTKNQVSLTCLVKGFYPSDIAVEWESNGQPENNYKTTPPVLDSDGSFFLYSKLTVDKSRWQQGNVFSCSVLHEALHYHYTQKSLSLSP light: not shown | 120 nM
9 | IgG1-F552 (antibody, EU numbering; 'N428L' as printed, probably M428L; copies: 2 + 2) heavy: QVQLQESGPGLVKPSETLSLTCAVSGHSISHDHAWSWVRQPPGEGLEWIGFISYSGITNYNPSLQGRVTISRDNSKNTLYLQMNSLRAEDTAVYYCARSLARTTAMDYWGEGTLVTVSSASTKGPSVFPLAPSSKSTSGGTAALGCLVKDYFPEPVTVSWNSGALTSGVHTFPAVLQSSGLYSLSSVVTVPSSSLGTQTYICNVNHKPSNTKVDKKVEPKSCDKTHTCPPCPAPELLGGPSVFLFPPKPKDYLMISRTVEVTCVVVDVSHEDPEVKFNWYVDGVEVHNAKTKPREEQYNSTYRVVSVLQVLHQDWLNGKEYKCKVSNKALPAPIEKTISKAKGQPREPQVYTLPPSRDELTKNQVSLTCLVKGFYPSDIAVEWESNGQPENNYKTTPPVLDSDGSFFLYSKLTVDKSRWQQGNVFSCSVLHEALHYHYTQKSLSLSP light: not shown | 110 nM
10 | IgG1-F553 (antibody, EU numbering; copies: 2 + 2) heavy: QVQLQESGPGLVKPSETLSLTCAVSGHSISHDHAWSWVRQPPGEGLEWIGFISYSGITNYNPSLQGRVTISRDNSKNTLYLQMNSLRAEDTAVYYCARSLARTTAMDYWGEGTLVTVSSASTKGPSVFPLAPSSKSTSGGTAALGCLVKDYFPEPVTVSWNSGALTSGVHTFPAVLQSSGLYSLSSVVTVPSSSLGTQTYICNVNHKPSNTKVDKKVEPKSCDKTHTCPPCPAPELLGGPSVFLFPPKPKDTLYISRTPEVTCVVVDVSHEDPEVKFNWYVDGVEVHNAKTKPREEQYNSTYRVVSVLTVLHADWLNGKEYKCKVSNKALPAPIEKTISKAKGQPREPQVYTLPPSRDELTKNQVSLTCLVKGFYPSDIAVEWESNGQPENNYKTTPPVLDSDGSFFLYSKLTVDKSRWQQGNVFSCSVMHEALHYHYTQKSLSLSP light: not shown | 170 nM
11 | IgG1-F556 (antibody, EU numbering; copies: 2 + 2) heavy: QVQLQESGPGLVKPSETLSLTCAVSGHSISHDHAWSWVRQPPGEGLEWIGFISYSGITNYNPSLQGRVTISRDNSKNTLYLQMNSLRAEDTAVYYCARSLARTTAMDYWGEGTLVTVSSASTKGPSVFPLAPSSKSTSGGTAALGCLVKDYFPEPVTVSWNSGALTSGVHTFPAVLQSSGLYSLSSVVTVPSSSLGTQTYICNVNHKPSNTKVDKKVEPKSCDKTHTCPPCPAPELLGGPSVFLFPPKPKDTLYISRTPEVTCVVVDVSHEDPEVKFNWYVDGVEVHNAKTKPREEQYNSTYRVVSVLQVLHADWLNGKEYKCKVSNKALPAPIEKTISKAKGQPREPQVYTLPPSRDELTKNQVSLTCLVKGFYPSDIAVEWESNGQPENNYKTTPPVLDSDGSFFLYSKLTVDKSRWQQGNVFSCSVMHEALHNHYTQKSLSLSP light: not shown | 1500 nM
12 | IgG1-F559 (antibody, EU numbering; copies: 2 + 2) heavy: QVQLQESGPGLVKPSETLSLTCAVSGHSISHDHAWSWVRQPPGEGLEWIGFISYSGITNYNPSLQGRVTISRDNSKNTLYLQMNSLRAEDTAVYYCARSLARTTAMDYWGEGTLVTVSSASTKGPSVFPLAPSSKSTSGGTAALGCLVKDYFPEPVTVSWNSGALTSGVHTFPAVLQSSGLYSLSSVVTVPSSSLGTQTYICNVNHKPSNTKVDKKVEPKSCDKTHTCPPCPAPELLGGPSVFLFPPKPKDTLYITRTPEVTCVVVDVSHEDPEVKFNWYVDGVEVHEAKTKPREEQYNSTYRVVSVLTVLHQDWLNGKEYKCKVSNKALPAPIEKTISKAKGQPREPQVYTLPPSRDELTKNQVSLTCLVKGFYPSDIAVEWESNGQPENNYKTTPPVLDSDGSFFLYSKLTVDKSRWQQGNVFSCSVMHEALHYHYTQKSLSLSP light: not shown | 80 nM
13 | IgG1-F560 (antibody, EU numbering; copies: 2 + 2) heavy: QVQLQESGPGLVKPSETLSLTCAVSGHSISHDHAWSWVRQPPGEGLEWIGFISYSGITNYNPSLQGRVTISRDNSKNTLYLQMNSLRAEDTAVYYCARSLARTTAMDYWGEGTLVTVSSASTKGPSVFPLAPSSKSTSGGTAALGCLVKDYFPEPVTVSWNSGALTSGVHTFPAVLQSSGLYSLSSVVTVPSSSLGTQTYICNVNHKPSNTKVDKKVEPKSCDKTHTCPPCPAPELLGGPSVFLFPPKPKDTLYITRTPEVTCVVVDVSHEDPEVKFNWYVDGVEVHNAKTKPREEQYNSTYRVVSVLTPLHQDWLNGKEYKCKVSNKALPAPIEKTISKAKGQPREPQVYTLPPSRDELTKNQVSLTCLVKGFYPSDIAVEWESNGQPENNYKTTPPVLDSDGSFFLYSKLTVDKSRWQQGNVFSCSVMHEALHYHYTQKSLSLSP light: not shown | 28 nM
